# Data: PMC10326071
# Biological target: middle domain of human Paip1 (Paip1M) (human) (UniProt Q9H074)
# Test: BLI; […]; 1x PBS pH 7.4, 0.1% surfactant P20, 0.1% BSA, 500 mM NaCl; 25 C; global fit, 1:1 model
# Sequence of middle domain of human Paip1 (Paip1M) (human) (Q9H074 157-375): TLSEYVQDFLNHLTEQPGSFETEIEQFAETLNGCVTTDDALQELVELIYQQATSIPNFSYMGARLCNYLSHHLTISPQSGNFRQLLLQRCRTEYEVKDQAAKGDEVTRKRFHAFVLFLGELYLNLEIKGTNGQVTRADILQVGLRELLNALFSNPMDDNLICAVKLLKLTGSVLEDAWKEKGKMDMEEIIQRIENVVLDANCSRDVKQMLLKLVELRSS
substance,measurement,value
SARS-CoV-2 SUD-core-CC (domain or fragment),Kd,7.2 µM
